The values below come from PMC5815892 (Clinical cancer research : an official journal of the …, 2017).

In assay [1] the target is purified fibulin-3 (human) (Homo sapiens (Human)., UniProt Q12805). The experiment in a line: SPR. On the technique in general: Surface plasmon resonance follows binding to a sensor surface in real time, without labels.
In assay [2] the target is T1, free DSL-like peptide from human fibulin-3 (Thr25-Glu47) (Homo sapiens (Human).).
T1 chain: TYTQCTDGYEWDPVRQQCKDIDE
The experiment in a line: ELISA. A general note: ELISA stands for enzyme-linked immunosorbent assay.

Chain of purified fibulin-3 (human) (Q12805 18-493): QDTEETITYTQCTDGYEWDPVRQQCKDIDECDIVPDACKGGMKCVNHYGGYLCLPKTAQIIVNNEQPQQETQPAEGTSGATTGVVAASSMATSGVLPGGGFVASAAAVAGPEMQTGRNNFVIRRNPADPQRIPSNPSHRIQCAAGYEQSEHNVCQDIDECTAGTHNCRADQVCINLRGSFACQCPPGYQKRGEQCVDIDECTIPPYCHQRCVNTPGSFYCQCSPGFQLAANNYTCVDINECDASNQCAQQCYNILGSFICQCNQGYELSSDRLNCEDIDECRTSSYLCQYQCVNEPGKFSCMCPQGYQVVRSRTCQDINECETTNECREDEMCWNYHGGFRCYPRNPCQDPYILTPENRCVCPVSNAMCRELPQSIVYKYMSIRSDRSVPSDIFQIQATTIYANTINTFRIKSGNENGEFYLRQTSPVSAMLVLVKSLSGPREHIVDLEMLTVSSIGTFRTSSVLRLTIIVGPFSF

B1: mAb428.2 (anti-fibulin-3 clone mAb428.2.3C11.H11.G3) (antibody, V domains shown)
VH: QIQLVQSGPELKKPGETVKISCKASGYSFTTYGMSWVKQAPGKGLKWMGWINTYSGVPTYADDFKGRFAFFLETSASTAYLQINNLKNEDTATYFCARWVDYWGQGTTLTVSS
VL: DIKMTQSPSSMYASLGERVTITCKASQDIKSYLSWHQQKPWKSPKTLIYYATSLADGVPSRFSGSGSGQDYSLTISSLESDDTATYYCLQHGKSPYTFGGGTKLEIK
Molecule B1 showed a Kd in assay [1] of 5 ± 1 nM. For the same molecule, the binding result in assay [2] is given as “binds”.

In general, Kd refers to a measure of binding affinity in units of concentration.
